According to publication PMC9942828:

Assays:
[1] = biological target: SORLA dimer of SORLA-V1 and SORLA-V2 with reconstituted Venus (human) (UniProt Q92673); test: co-IP
[2] = biological target: PA-tagged SORLA VPS10p-domain (1 to 753), T659C mutant (human) (UniProt Q92673); test: cross-linking

Sequence of UniProt Q92673 (Q92673 82-2214, chain 1 of 2): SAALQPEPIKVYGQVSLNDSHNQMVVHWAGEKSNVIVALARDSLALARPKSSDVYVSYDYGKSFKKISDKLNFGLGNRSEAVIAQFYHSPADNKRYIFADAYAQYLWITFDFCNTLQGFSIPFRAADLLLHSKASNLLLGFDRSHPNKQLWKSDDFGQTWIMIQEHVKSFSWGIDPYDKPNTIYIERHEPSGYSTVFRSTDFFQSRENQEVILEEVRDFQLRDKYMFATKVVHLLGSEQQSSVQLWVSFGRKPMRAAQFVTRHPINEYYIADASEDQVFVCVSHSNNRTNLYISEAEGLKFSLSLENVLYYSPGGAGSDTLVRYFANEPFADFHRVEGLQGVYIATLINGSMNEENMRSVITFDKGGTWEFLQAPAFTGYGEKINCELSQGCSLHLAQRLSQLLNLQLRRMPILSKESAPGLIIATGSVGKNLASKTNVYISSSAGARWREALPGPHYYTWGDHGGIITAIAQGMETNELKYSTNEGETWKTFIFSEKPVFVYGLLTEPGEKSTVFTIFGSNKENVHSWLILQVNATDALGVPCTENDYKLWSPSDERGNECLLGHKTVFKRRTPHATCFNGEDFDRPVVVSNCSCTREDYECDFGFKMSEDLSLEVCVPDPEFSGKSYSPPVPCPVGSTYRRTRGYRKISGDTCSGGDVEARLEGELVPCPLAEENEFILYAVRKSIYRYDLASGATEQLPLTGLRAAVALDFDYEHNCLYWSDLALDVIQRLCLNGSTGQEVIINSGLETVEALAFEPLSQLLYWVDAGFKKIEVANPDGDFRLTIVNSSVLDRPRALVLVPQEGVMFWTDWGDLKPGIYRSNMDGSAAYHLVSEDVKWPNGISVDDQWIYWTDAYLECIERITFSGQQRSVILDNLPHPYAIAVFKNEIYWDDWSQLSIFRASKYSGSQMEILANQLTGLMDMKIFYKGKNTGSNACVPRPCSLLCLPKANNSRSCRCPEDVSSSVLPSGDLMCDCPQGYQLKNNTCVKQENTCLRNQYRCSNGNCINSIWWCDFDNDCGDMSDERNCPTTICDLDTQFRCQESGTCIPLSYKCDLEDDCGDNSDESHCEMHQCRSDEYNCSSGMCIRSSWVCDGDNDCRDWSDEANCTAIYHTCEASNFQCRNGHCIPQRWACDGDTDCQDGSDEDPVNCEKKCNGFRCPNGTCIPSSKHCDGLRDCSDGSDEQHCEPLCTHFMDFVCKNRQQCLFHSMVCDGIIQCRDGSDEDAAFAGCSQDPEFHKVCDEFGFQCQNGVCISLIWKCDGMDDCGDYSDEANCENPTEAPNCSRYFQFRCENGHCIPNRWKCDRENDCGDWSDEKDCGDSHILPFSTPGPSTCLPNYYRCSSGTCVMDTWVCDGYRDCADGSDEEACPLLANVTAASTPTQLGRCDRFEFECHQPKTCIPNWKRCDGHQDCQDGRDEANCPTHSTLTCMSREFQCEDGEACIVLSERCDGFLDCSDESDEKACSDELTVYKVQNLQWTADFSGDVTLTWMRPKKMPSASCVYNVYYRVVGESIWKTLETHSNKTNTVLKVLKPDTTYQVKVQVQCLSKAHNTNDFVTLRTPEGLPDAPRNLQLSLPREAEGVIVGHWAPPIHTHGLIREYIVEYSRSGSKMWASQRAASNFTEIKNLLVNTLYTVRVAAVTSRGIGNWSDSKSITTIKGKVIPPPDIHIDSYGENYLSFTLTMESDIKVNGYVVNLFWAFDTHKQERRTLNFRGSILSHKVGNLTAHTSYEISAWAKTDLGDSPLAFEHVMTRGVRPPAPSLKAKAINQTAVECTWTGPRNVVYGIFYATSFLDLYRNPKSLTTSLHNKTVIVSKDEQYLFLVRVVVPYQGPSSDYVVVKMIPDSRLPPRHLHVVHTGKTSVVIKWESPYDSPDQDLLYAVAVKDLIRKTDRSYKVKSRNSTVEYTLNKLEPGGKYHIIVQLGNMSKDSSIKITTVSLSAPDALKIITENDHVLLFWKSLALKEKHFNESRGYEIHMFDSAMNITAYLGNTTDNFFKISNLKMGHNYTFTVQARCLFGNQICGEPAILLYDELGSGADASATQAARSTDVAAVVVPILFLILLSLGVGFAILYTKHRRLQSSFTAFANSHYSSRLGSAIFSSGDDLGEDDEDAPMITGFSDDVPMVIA
Sequence of UniProt Q92673 (Q92673 82-2214, chain 2 of 2): as the sequence (Q92673 82-2214, chain 1 of 2) above

co-IP product relative to total input [1] [%] | stoichiometry N [2] | Substance
6 |  | VPS26b subunit of retromer (from UniProt Q4G0F5 1-336) (natural protein)
 | 2 | PA-tagged SORLA VPS10p-domain (1 to 753), T659C mutant (from UniProt Q92673 29-753) (domain or fragment)
